The record followed here is US20050100965A1.

A word on the Kd: it is the equilibrium constant for the complex coming apart. In general, koff refers to the rate constant with which the complex falls apart. By kon is commonly meant the rate constant with which the complex forms. Low readings indicate slower complex formation, high ones faster complex formation. One may read the IC50 as the concentration needed to halve the response being measured.

Test [1] has as its target natural human IL-18 (human) (UniProt Q14116). The test can be described thus: cell-based or functional assay.
Test [2] deals with (4C/A)-huIL-18 (human) (UniProt Q14116). The test can be described thus: cell-based or functional assay.
Test [3] shares this target. The test can be described thus: Biacore, (4C/A)-HuIL-18. In general terms: SPR reads the build-up and loss of mass on a sensor chip optically.
In test [4] the target is 125I labeled rhuIL-18 (human) (UniProt Q14116). The test can be described thus: Receptor Binding Assay: inhibition of 125I-rhu-IL-18 binding to IL-18Rαβ on TNF-treated KG-1 cells.
The target of test [5] is NEM-huIL-18 (human) (UniProt Q14116). The test can be described thus: Biacore.
The target of test [6] is (4C/A)-huIL-18 (human) (UniProt Q14116). The test is described as follows: Biacore.

Substance “IL-18BP-Fc (from UniProt O95998 31-194) (Fc fusion)” yielded a WBA, Neutralization Potency in vitro (IC50, nM) in test [1] of 5.7 nM. In test [2], the KG-1, Neutralization Potency in vitro (IC50, nM) turned out to be 0.03 nM. Also, in test [3], the equilibrium dissociation constant (Kd) was 0.19 nM, the koff was 2.6e-05 s⁻¹ and the kon is 140000 M⁻¹ s⁻¹. In test [4], this substance yielded an IC50 of 1 nM. The substance further displayed a Kd in test [5] of 0.098 nM. In addition, the dissociation constant (Kd) in test [6] amounted to 0.135 nM.
